Laboratory results as given in patent US7521432B2, “Compositions and methods for identifying agents which regulate chromosomal stability, gene activation and aging” (priority 2000, dated 2009).
Changes are numbered by the printed parent chain. Names may count otherwise. “And” between values parts separate entries of the source, which are not always exact repeats. Equal values may be shown once.

B1: hSIRT2: human SIR2 enzyme (protein, UniProt Q8IXJ6 2-389, looked up)
NAD-dependent protein …: AEPDPSHPLETQAGKVQEAQDSDSDSEGGAAGGEADMDFLRNLFSQTLSLGSQKERLLDELTLEGVARYMQSERCRRVICLVGAGISTSAGIPDFRSPSTGLYDNLEKYHLPYPEAIFEISYFKKHPEPFFALAKELYPGQFKPTICHYFMRLLKDKGLLLRCYTQNIDTLERIAGLEQEDLVEAHGTFYTSHCVSASCRHEYPLSWMKEKIFSEVTPKCEDCQSLVKPDIVFFGESLPARFFSCMQSDFLKVDLLLVMGTSLQVQPFASLISKAPLSTPRLLINKEKAGQSDPFLGMIMGLGGGMDFDSKKAYRDVAWLGECDQGCLALAELLGWKKELEDLVRREHASIDAQSGAGVPNPSTSASPKKSPPPAKDEARTTEREKPQ
B2: HST2: yeast SIR2 homolog, recombinant histidine tagged full length NAD-dependent deacetylase (protein, UniProt P53686 2-357, looked up)
NAD-dependent protein …: SVSTASTEMSVRKIAAHMKSNPNAKVIFMVGAGISTSCGIPDFRSPGTGLYHNLARLKLPYPEAVFDVDFFQSDPLPFYTLAKELYPGNFRPSKFHYLLKLFQDKDVLKRVYTQNIDTLERQAGVKDDLIIEAHGSFAHCHCIGCGKVYPPQVFKSKLAEHPIKDFVKCDVCGELVKPAIVFFGEDLPDSFSETWLNDSEWLREKITTSGKHPQQPLVIVVGTSLAVYPFASLPEEIPRKVKRVLCNLETVGDFKANKRPTDLIVHQYSDEFAEQLVEELGWQEDFEKILTAQGGMGDNSKEQLLEIVHDLENLSLDQSEHESADKKDKKLQRLNGHDSDEDGASNSSSSQKAAKE
B3: HST2 R45A: catalytically impaired mutant of HST2 (R45A) (protein, UniProt P53686 2-357, looked up, variant R45A)
NAD-dependent protein …: B2 NAD-dependent protein … with R44A

What was measured:
[1] = tested on: Asterina miniata immature oocytes; experiment: Microinjection into immature starfish oocytes, oocyte maturation (GVBD, polar body extrusion); type: cell-based; settings: for maturation and fertilization of injected egg: 10 μM 1-MA
Method: (§1) Asterina miniata gametes were collected and microinjections were performed as described previously (Carroll et al., 1999). Briefly, quantitative microinjection of Asterina miniata oocytes was performed at 16° C., using mercury-filled micropipets (Hiramoto, 1962; Kiehart, 1982; and see the information available at http://egg/uchc.edu/injection), allowing injection of precisely calibrated picoliter volumes into the oocytes and blastomeres. Injection volumes were 3% of the total cellular volume (for oocytes, 93 pL and for blastomeres, 47 pL). Buffer alone, purified O-acetylated ADP ribose or recombinant protein was injected into immature oocytes or one blastomere of a two cell stage embryo to a final concentration in the cytoplasm as indicated in the figure legends and Tables. 1-methyl adenine was from Sigma and was used at 10 μM.
Micro-injection assays were performed in starfish and sea urchin ooctyes. Historically echinoderm development has been a biochemically tractable and well-defined system to assess biological function of pruteins, bio-active compounds and for detailed analyses of the cell cycle. This system is attractive for its amenability to quantitative microinjection assays, cell cycle analyses, biochemical fractionation and microscopic imaging of eggs and early embryos. Initially, we hypothesized that if O-acetyl-ADP ribose produced by SIR2 was involved in SIR2's gene silencing ability, then micro-injection of O-acetyl-ADP ribose into a maturing oocyte should give rise to a phenotypic effect on the developing animal, perhaps through perturbations in normal gene expression patterns. Immature oocytes were micro-injected with HPLC-purified O-acetyl-ADP ribose or with a buffer control. The oocytes were allowed to mature by the addition of 1-methyladenine and assessed for developmental alterations.
Asterina miniata immature oocytes were microinjected with the amounts of O-acetyl ADP ribose in PBS. The maturation hormone 1-methyladenine was added (10 μM) 25-30 minutes post-injection. Oocytes were monitored for GVBD and polar body extrusion. […] The number of oocytes per treatment is given. Combined results of 3 separate experiments (3 batches of O-acetyl ADP ribose).
Asterina miniata immature oocytes were microinjected with the given enzymes in PBS. The maturation hormone 1-methyladenine was added (10 μM) 25-30 minutes post-injection. Oocytes were monitored for GVBD and polar body extrusion. […] The number of oocytes per treatment (n) is given. Data are from four separate batches of oocytes. All oocytes for a given treatment responded in the same way unless indicated otherwise (e.g. see 200 nM HST2 injection).

[2] = tested on: Asterina miniata blastomere of two cell stage embryo; experiment: Microinjection into one blastomere of two-cell stage embryo, early embryonic cell division; type: cell-based
Method: as §1
To examine whether these SIR2 enzymes caused any phenotypic effects on early embryonic cell division, HST2 or the R45A mutant were micro-injected into one cell of the two-cell stage embryos. Asterina miniata oocytes were matured by addition of the hormone 1-methyladenine and then fertilized. One cell zygotes were then placed in injection chambers. After the first cell division, one daughter blastomere was microinjected with the indicated enzyme (see table and figure below). Embryos were monitored for further cell divisions over time. The non-injected daughter blastomere served as the internal control in each experiment. […] Again, there was a clear dosage effect that paralleled the effect observed on oocyte maturation.
Asterina miniata oocytes were matured by addition of the hormone 1-methyladenine and then fertilized. One cell zygotes were then placed in injection chambers. After the first cell division, one daughter blastomere was microinjected with the indicated enzyme. Embryos were monitored for further cell divisions over time. The non-injected daughter blastomere served as the internal control in each experiment. The number of injected embryos per treatment is given (n). Data are from two separate batches of oocytes.

[3] = target: acetyl-peptide (Saccharomyces cerevisiae, UniProt P53686, R45A); experiment: Catalytic efficiency of R45A mutant compared to wild type HST2; type: biochemical; settings: unpublished data
Chain of acetyl-peptide (P53686 whole entry R45A): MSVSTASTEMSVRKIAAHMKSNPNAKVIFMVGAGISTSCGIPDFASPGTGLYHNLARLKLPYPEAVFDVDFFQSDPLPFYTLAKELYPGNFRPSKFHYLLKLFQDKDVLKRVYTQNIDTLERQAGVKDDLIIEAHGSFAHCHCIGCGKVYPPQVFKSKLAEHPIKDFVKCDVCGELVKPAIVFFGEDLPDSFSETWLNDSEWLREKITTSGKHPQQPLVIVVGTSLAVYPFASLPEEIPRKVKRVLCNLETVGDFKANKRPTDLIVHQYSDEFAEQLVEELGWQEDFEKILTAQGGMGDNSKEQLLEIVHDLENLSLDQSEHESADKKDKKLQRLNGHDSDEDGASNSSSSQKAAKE
Description: To complement these studies, we micro-injected active yeast HST2 and human SIR2 enzymes instead of O-acetyl-ADP ribose. We hypothesized that if acetylated protein substrates were available in the oocyte, then micro-injected enzyme would provide a more constant source of O-acetyl-ADP ribose. As a control, a catalytically impaired mutant of HST2 (R45A) was employed to ensure that any effects were due to the catalytic activity of the enzyme. The R45A mutant is >50-fold lower in catalytic efficiency (kcat and kcat/Km for acetyl-peptide) compared to wild type enzyme (unpublished data).

[4] = final conc 200 nM in blastomere

| Molecule | effect on oocyte maturation ([1]; above 72 nM) | Effects/Notes (oocyte maturation) ([1]; final conc 25 nM) | Effects/Notes (oocyte maturation) ([1]; final conc 60 nM) | Effects/Notes (oocyte maturation) ([1]; final conc 200 nM) | Effects/Notes (oocyte maturation) ([1]; final conc 72 nM) | Effects: 3rd cell division ([2]; final conc 25 nM in blastomere) | Effects: Next cell division ([2]; final conc 25 nM in blastomere) | Effects: other ([2]; final conc 25 nM in blastomere) | Effects: 3rd cell division ([2]; final conc 72 nM in blastomere) | Effects: Next cell division ([2]; final conc 72 nM in blastomere) | Effects: 3rd cell division [2, 4] | Effects: Next cell division [2, 4] | also measured |
| --- | --- | --- | --- | --- | --- | --- | --- | --- | --- | --- | --- | --- | --- |
| B1 | complete block in maturation | no effect was observed | 2 hr delay in GVBD and polar body extrusion and polar | complete block |  |  |  |  |  |  |  |  |  |
| B2 | complete block in maturation | no effect was observed | 2 hr delay in GVBD and polar body extrusion | complete block in 9/10; 3 hr delay 1/10 | complete block | Normal | 4/5 normal and 1/5 as slight | Normal | Complete | 4/10 slight and 6/10 no | Complete | 2/7 slight and 5/7 no | maturation and fertilization of injected egg ([1]; 200 nM final, fertilized 4 hours later, FIG. 10A): failed to mature; injected eggs in chamber behaving the same way (failed to mature) ([1]; 200 nM final, FIG. 10A): 10 of 10; development of injected cells ([2]; 25 nM, most cells): developed normally; division of injected blastomere ([2]; 200 nM, injected after complete cytokinesis, FIG. 10C): divided once, then both daughters stopped; effect on cell division of injected blastomere ([2]; at and above 72 nM): complete block in cell division either at the next or subsequent division |
| B3 |  | no observed effect | no observed effect | no observed effect | no observed effect | Normal | Normal | Normal | Normal | Normal | Normal | normal | lower in catalytic efficiency (kcat and kcat/Km for acetyl-peptide) compared to wild type enzyme [3]: > 50 fold; maturation and fertilization of injected egg ([1]; fertilized four hours later, FIG. 10B): matured and were fertilized normally; injected eggs in chamber behaving the same way (matured, fertilized normally) ([1]; FIG. 10B): 7 of 7; effect on oocyte maturation ([1]; any concentration from 25-200 nM): no observed effects; phenotype of injected blastomere ([2]; any concentration): no phenotype; Effects: other ([2]; final conc 72 nM in blastomere): Normal; Effects: other [2, 4]: Normal |
